The record followed here is patent publication US20240199762A1 (PHILOGEN S P A, published 2024).

For assay [1], the target named is T1, canine FAP (caFAP) extracellular domain (ECD) (domestic dog (Canis familiaris)).
T1 construct: also called caFAP-ECD
T1 chain: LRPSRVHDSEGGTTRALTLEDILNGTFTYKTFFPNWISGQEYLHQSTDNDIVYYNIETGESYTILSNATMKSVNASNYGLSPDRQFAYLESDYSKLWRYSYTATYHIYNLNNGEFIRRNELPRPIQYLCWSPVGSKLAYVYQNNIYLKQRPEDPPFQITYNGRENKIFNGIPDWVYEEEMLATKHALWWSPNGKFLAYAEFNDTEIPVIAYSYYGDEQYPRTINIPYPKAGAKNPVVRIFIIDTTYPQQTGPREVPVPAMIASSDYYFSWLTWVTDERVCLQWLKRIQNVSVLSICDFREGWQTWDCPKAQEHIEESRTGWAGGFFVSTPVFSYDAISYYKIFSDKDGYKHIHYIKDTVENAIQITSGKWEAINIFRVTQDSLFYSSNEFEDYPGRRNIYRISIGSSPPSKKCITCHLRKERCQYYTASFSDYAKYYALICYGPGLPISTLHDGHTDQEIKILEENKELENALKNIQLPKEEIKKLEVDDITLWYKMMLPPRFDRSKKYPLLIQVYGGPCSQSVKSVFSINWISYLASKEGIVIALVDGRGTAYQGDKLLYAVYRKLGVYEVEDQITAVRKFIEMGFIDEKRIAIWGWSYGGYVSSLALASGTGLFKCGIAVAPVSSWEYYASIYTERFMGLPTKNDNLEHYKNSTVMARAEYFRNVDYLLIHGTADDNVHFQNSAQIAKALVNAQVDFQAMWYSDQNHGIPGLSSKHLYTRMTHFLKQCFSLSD
Kind of assay: ELISA, 120 nM caFAP-ECD coated, antibody at 5 ug/mL. The protocol: (§1) Cross-reactivity of the anti-hFAP antibodies with caFAP-ECD was tested using ELISA. 120 nM of caFAP-ECD was coated on Maxisorp plates overnight at 4° C. […] Specifically, the C5 antibody was employed in IgG2a format, while all other antibodies, including the 7NP2 antibody, were in IgG1 format. The differences between the IgG2a and IgG1 formats are not expected to affect binding to FAP. After 3 washes with PBS, binding of the antibodies to caFAP-ECD was detected using an anti-human or anti-murine antibody HRP conjugate.
For orientation: ELISA stands for enzyme-linked immunosorbent assay.

The target of assay [2] is T2, porcine FAP (pFAP) extracellular domain (ECD) (pig, UniProt A5D7B7 39-760 (bovine entry)).
T2 construct: also called pFAP-ECD
T2 chain: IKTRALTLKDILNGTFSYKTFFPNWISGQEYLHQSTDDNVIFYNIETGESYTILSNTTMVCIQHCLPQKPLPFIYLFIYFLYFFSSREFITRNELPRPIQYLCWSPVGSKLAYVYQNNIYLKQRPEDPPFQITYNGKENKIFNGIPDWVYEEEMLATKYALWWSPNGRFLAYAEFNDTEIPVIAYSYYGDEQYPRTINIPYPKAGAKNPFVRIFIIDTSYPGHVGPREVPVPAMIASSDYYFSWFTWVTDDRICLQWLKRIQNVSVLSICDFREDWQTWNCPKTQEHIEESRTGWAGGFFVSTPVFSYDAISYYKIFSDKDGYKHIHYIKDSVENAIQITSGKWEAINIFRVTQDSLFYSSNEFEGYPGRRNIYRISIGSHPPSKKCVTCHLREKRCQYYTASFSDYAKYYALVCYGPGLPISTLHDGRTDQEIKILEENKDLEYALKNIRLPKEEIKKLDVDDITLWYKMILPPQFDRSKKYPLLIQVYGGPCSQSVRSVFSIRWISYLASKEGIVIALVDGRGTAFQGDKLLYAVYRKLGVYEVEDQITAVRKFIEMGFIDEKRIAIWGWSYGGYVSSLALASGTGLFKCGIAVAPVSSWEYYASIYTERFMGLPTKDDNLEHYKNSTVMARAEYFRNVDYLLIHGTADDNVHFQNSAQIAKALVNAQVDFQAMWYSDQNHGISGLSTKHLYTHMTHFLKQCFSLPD
As to the kind of experiment: ELISA, 120 nM pFAP-ECD coated on Maxisorp plates. The protocol:
Cross-reactivity of the anti-hFAP antibodies with oFAP-ECD and pFAP-ECD was tested using ELISA. 120 nM of oFAP-ECD or pFAP-ECD was coated on Maxisorp plates overnight at 4° C. […] Specifically, the C5 antibody was employed in IgG2a format, while all other antibodies, including the 7NP2 antibody, were in IgG1 format. The differences between the IgG2a and IgG1 formats are not expected to affect binding to FAP. After 3 washes with PBS, binding of the antibodies to oFAP-ECD and pFAP-ECD was detected using an anti-human or anti-murine antibody HRP conjugate.

Assay [3] concerns the target T1, canine FAP (caFAP) extracellular domain …. Kind of assay: ELISA, 120 nM caFAP-ECD coated on Maxisorp plates. The protocol:
as §1

B1: anti-FAP antibody 7NP2 in IgG1 format (antibody, V domains shown)
VH: EVQLLESGGGLVQPGGSLRLSCAASGFTFSSYAMSWVRQAPGKGLEWVSAIGSVGGPTYYADSVKGRFTISRDNSKNTLYLQMNSLRAEDTAVYYCAKRLAWFDYWGQGTLVTVSS
VL: EIVLTQSPGTLSLSPGERATLSCRASQSVSSSYLAWYQQKPGQAPRLLIYGASSRATGIPDRFSGSGSGTDFTLTISRLEPEDFAVYYCQQSGKGPLTFGQGTKVEIKR
notes: also called 7NP2 IgG1; 7NP2(IgG1)
As for B1, in assay [1], the binding result is on record as “binds”.

B2: anti-hen egg lysozyme antibody KSF in IgG1 format (antibody, V domains shown)
VH: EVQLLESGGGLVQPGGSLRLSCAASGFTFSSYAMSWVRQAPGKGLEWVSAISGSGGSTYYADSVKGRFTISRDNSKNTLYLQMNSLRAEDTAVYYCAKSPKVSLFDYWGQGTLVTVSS
VL: SSELTQDPAVSVALGQTVRITCQGDSLRSYYASWYQQKPGQAPVLVIYGKNNRPSGIPDRFSGSSSGNTASLTITGAQAEDEADYYCQSSPLNRLAVVFGGGTKLTVLG
notes: Negative control; It was conjugated to FITC in the immunofluorescence and ex vivo experiments; also called KSF IgG1; KSF(IgG1)
As to B2, the binding result in assay [2] and in assay [3] was “no binding (tested: 5 µg/mL)” in each case.
